{"source": "paper PMC10397247", "test_in_all_cases": "two-hybrid library CCNG1;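 further: natural log of median RNA to DNA barcode read ratio; higher means stronger binding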", "key": {"[1]": {"biological_target": "T1, 4H3010-bN", "T1 chain": "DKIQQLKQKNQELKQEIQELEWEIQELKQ"}, "[2]": {"biological_target": "T2, 4H3427-bN", "T2 chain": "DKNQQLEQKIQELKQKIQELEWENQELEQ"}, "[3]": {"biological_target": "T3, 4H754-bN", "T3 chain": "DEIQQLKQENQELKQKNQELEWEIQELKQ"}, "[4]": {"biological_target": "T4, 4H2702-bN", "T4 chain": "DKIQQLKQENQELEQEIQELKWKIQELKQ"}, "[5]": {"biological_target": "T5, 4H170-bN", "T5 chain": "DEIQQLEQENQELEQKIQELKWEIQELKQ"}, "[6]": {"biological_target": "T6, 4H3926-bN", "T6 chain": "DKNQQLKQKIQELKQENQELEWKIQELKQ"}, "[7]": {"biological_target": "T7, 4H346-bN", "T7 chain": "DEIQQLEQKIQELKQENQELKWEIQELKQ"}, "[8]": {"biological_target": "T8, 4H2586-bN", "T8 chain": "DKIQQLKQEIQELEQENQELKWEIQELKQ"}, "[9]": {"biological_target": "T9, 4H1831-bN", "T9 chain": "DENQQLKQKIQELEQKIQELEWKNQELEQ"}, "[10]": {"biological_target": "T10, 4H855-bN", "T10 chain": "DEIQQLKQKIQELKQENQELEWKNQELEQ"}, "[11]": {"biological_target": "T11, 4H4073-bN", "T11 chain": "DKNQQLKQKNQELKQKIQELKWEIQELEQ"}, "[12]": {"biological_target": "T12, 4H918-bN", "T12 chain": "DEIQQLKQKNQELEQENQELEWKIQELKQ"}, "[13]": {"biological_target": "T13, 4H2673-bN", "T13 chain": "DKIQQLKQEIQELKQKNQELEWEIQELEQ"}, "[14]": {"biological_target": "T14, 4H457-bN", "T14 chain": "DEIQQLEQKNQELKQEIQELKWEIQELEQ"}, "[15]": {"biological_target": "T15, 4H575-bN", "T15 chain": "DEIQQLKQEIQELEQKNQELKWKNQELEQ"}, "[16]": {"biological_target": "T16, 4H797-bN", "T16 chain": "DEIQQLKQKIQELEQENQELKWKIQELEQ"}, "[17]": {"biological_target": "T17, 4H3112-bN", "T17 chain": "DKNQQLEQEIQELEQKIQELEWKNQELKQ"}, "[18]": {"biological_target": "T18, 4H683-bN", "T18 chain": "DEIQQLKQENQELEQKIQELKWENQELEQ"}, "[19]": {"biological_target": "T19, 4H780-bN", "T19 chain": "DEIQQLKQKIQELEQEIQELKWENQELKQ"}, "[20]": {"biological_target": "T20, 4H968-bN", "T20 chain": "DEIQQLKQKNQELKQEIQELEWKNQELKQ"}, "[21]": {"biological_target": "T21, 4H953-bN", "T21 chain": "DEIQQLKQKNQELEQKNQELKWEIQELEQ"}, "[22]": {"biological_target": "T22, 4H2627-bN", "T22 chain": "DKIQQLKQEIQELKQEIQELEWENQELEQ"}, "[23]": {"biological_target": "T23, O8", "T23 chain": "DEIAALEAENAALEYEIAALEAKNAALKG"}, "[24]": {"biological_target": "T24, 4H3298-bH", "T24 chain": "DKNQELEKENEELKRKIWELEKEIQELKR"}, "[25]": {"biological_target": "T25, 4H1899-bH", "T25 chain": "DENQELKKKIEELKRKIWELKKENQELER"}, "[26]": {"biological_target": "T26, 4H906-bH", "T26 chain": "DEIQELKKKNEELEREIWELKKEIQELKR"}, "[27]": {"biological_target": "T27, 4H1544-bH", "T27 chain": "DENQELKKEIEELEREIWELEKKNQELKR"}, "[28]": {"biological_target": "T28, 4H3497-bH", "T28 chain": "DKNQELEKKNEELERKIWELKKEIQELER"}, "[29]": {"biological_target": "T29, 4H3613-bH", "T29 chain": "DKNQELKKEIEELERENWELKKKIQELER"}, "[30]": {"biological_target": "T30, 4H1985-bH", "T30 chain": "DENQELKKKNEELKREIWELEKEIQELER"}, "[31]": {"biological_target": "T31, 4H850-bH", "T31 chain": "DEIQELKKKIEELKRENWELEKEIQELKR"}, "[32]": {"biological_target": "T32, 4H3782-bH", "T32 chain": "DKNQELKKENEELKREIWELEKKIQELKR"}, "[33]": {"biological_target": "T33, 4H3817-bH", "T33 chain": "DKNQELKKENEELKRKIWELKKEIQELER"}, "[34]": {"biological_target": "T34, 4H1373-bH", "T34 chain": "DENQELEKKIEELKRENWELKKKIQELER"}, "[35]": {"biological_target": "T35, 4H1710-bH", "T35 chain": "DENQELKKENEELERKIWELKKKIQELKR"}, "[36]": {"biological_target": "T36, 4H3175-bH", "T36 chain": "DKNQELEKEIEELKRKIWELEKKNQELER"}, "[37]": {"biological_target": "T37, 4H3628-bH", "T37 chain": "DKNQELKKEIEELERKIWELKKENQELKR"}, "[38]": {"biological_target": "T38, 4H730-bA", "T38 chain": "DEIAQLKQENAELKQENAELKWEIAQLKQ"}, "[39]": {"biological_target": "T39, 4H3858-bH", "T39 chain": "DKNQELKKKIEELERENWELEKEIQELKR"}, "[40]": {"biological_target": "T40, 4H932-bN", "T40 chain": "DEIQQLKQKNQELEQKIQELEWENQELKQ"}, "[41]": {"biological_target": "T41, 4H570-bH", "T41 chain": "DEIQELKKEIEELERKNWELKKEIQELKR"}, "[42]": {"biological_target": "T42, 4H3843-bH", "T42 chain": "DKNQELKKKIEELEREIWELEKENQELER"}, "[43]": {"biological_target": "T43, 4H3462-bH", "T43 chain": "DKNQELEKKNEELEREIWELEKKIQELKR"}, "[44]": {"biological_target": "T44, 4H591-bH", "T44 chain": "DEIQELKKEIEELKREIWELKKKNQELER"}, "[45]": {"biological_target": "T45, 4H1449-bH", "T45 chain": "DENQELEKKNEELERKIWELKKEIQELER"}, "[46]": {"biological_target": "T46, 4H3974-bH", "T46 chain": "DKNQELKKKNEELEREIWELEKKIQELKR"}, "[47]": {"biological_target": "T47, 4H626-bH", "T47 chain": "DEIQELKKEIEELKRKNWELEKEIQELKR"}, "[48]": {"biological_target": "T48, 4H3277-bH", "T48 chain": "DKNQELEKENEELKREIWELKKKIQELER"}, "[49]": {"biological_target": "T49, 4H3162-bH", "T49 chain": "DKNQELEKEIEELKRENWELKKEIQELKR"}, "[50]": {"biological_target": "T50, 4H3926-bH", "T50 chain": "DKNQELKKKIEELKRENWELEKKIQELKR"}, "[51]": {"biological_target": "T51, P7SHb", "T51 chain": "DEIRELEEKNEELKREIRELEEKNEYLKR"}, "[52]": {"biological_target": "T52, P6SHb", "T52 chain": "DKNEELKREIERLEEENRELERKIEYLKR"}, "[53]": {"biological_target": "T53, P4SHb", "T53 chain": "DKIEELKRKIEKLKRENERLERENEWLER"}, "[54]": {"biological_target": "T54, P9SHb", "T54 chain": "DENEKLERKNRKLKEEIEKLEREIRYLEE"}, "[55]": {"biological_target": "T55, P8SHb", "T55 chain": "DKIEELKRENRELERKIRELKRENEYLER"}, "[56]": {"biological_target": "T56, P5SHb", "T56 chain": "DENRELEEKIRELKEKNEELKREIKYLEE"}, "[57]": {"biological_target": "T57, P2SHb", "T57 chain": "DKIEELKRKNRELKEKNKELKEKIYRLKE"}, "[58]": {"biological_target": "T58, P3SHb", "T58 chain": "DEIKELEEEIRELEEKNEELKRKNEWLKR"}}}
{"binder": "DEIQQLEQENQELEQKIQELKWEIQELKQ", "note": "[4H170-bN]", "values": [{"measurement": "interaction score", "setting": "[1]", "result": 2.14}, {"measurement": "interaction score", "setting": "[2]", "result": -0.458}, {"measurement": "interaction score", "setting": "[3]", "result": -0.104}, {"measurement": "interaction score", "setting": "[4]", "result": 1.32}, {"measurement": "interaction score", "setting": "[5]", "result": 0.334}, {"measurement": "interaction score", "setting": "[6]", "result": 0.153}, {"measurement": "interaction score", "setting": "[7]", "result": -0.772}, {"measurement": "interaction score", "setting": "[8]", "result": -1.86}, {"measurement": "interaction score", "setting": "[9]", "result": -1.26}, {"measurement": "interaction score", "setting": "[10]", "result": 0.202}, {"measurement": "interaction score", "setting": "[11]", "result": 1.61}, {"measurement": "interaction score", "setting": "[12]", "result": -0.811}, {"measurement": "interaction score", "setting": "[13]", "result": -0.742}, {"measurement": "interaction score", "setting": "[14]", "result": -0.694}, {"measurement": "interaction score", "setting": "[15]", "result": 0.401}, {"measurement": "interaction score", "setting": "[16]", "result": -0.668}, {"measurement": "interaction score", "setting": "[17]", "result": 0.507}, {"measurement": "interaction score", "setting": "[18]", "result": -0.329}, {"measurement": "interaction score", "setting": "[19]", "result": -0.283}, {"measurement": "interaction score", "setting": "[20]", "result": 1.15}, {"measurement": "interaction score", "setting": "[21]", "result": -1.71}, {"measurement": "interaction score", "setting": "[22]", "result": -1.42}]}
{"binder": "DENQELEKKIEELKRENWELKKKIQELER", "note": "[4H1373-bH]", "values": [{"measurement": "interaction score", "setting": "[23]", "result": -0.719}, {"measurement": "interaction score", "setting": "[24]", "result": 0.0783}, {"measurement": "interaction score", "setting": "[25]", "result": -2}, {"measurement": "interaction score", "setting": "[26]", "result": -0.627}, {"measurement": "interaction score", "setting": "[27]", "result": -0.374}, {"measurement": "interaction score", "setting": "[28]", "result": -0.763}, {"measurement": "interaction score", "setting": "[29]", "result": 0.423}, {"measurement": "interaction score", "setting": "[30]", "result": 0.5}, {"measurement": "interaction score", "setting": "[31]", "result": -0.156}, {"measurement": "interaction score", "setting": "[32]", "result": -0.345}, {"measurement": "interaction score", "setting": "[33]", "result": -0.502}, {"measurement": "interaction score", "setting": "[34]", "result": 0.778}, {"measurement": "interaction score", "setting": "[35]", "result": -2.29}, {"measurement": "interaction score", "setting": "[36]", "result": 0.281}, {"measurement": "interaction score", "setting": "[37]", "result": -1.36}, {"measurement": "interaction score", "setting": "[38]", "result": -0.488}, {"measurement": "interaction score", "setting": "[39]", "result": 0.654}, {"measurement": "interaction score", "setting": "[40]", "result": 0.58}, {"measurement": "interaction score", "setting": "[41]", "result": 0.082}, {"measurement": "interaction score", "setting": "[42]", "result": -0.0729}, {"measurement": "interaction score", "setting": "[43]", "result": -0.048}, {"measurement": "interaction score", "setting": "[44]", "result": -0.84}, {"measurement": "interaction score", "setting": "[45]", "result": -1.04}, {"measurement": "interaction score", "setting": "[46]", "result": 0.369}, {"measurement": "interaction score", "setting": "[47]", "result": -0.984}, {"measurement": "interaction score", "setting": "[48]", "result": -0.681}, {"measurement": "interaction score", "setting": "[49]", "result": 0.645}, {"measurement": "interaction score", "setting": "[50]", "result": 1.67}]}
{"binder": "DKIEELKRKNRELKEKNKELKEKIYRLKE", "note": "[P2SHb]", "values": [{"measurement": "interaction score", "setting": "[51]", "result": 0.49}, {"measurement": "interaction score", "setting": "[52]", "result": 0.195}, {"measurement": "interaction score", "setting": "[53]", "result": 0.291}, {"measurement": "interaction score", "setting": "[54]", "result": -1.55}, {"measurement": "interaction score", "setting": "[55]", "result": -0.265}, {"measurement": "interaction score", "setting": "[56]", "result": 0.588}, {"measurement": "interaction score", "setting": "[57]", "result": -0.669}, {"measurement": "interaction score", "setting": "[58]", "result": -0.091}]}
